Assay results published in US20230265151A1, “GIP/GLP1 CO-AGONIST COMPOUNDS” (priority 2020, published 2023).
Numbering of substitutions follows the chain as printed.

T1: human GIP receptor (human, UniProt P48546 22-466)
T1 sequence (looked up): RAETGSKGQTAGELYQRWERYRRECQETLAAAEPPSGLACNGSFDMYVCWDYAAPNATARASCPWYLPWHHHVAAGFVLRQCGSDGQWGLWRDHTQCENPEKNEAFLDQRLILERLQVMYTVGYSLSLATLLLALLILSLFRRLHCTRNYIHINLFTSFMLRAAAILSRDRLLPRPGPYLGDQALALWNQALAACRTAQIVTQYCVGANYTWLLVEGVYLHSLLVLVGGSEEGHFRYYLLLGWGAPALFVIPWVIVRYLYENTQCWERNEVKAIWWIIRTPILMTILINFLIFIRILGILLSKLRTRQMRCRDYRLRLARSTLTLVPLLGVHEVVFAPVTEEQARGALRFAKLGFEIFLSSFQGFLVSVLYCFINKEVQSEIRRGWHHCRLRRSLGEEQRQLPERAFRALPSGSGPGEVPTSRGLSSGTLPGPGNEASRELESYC

B1: Y-Aib-EGT-αMeF(2F)-TSD-4Pal-SI-αMeL-LD-Orn-K((2-[2-(2-Amino-ethoxy)-ethoxy]-acetyl)2-(γ-Glu)-CO-(CH2)12-CO2H)AQ-Aib-Orn-FI-(D-Glu)-αMeY-LIEGGK((2-[2-(2-Amino-et … (peptide)
peptide: YXEGTXTSDXSIXLDXKAQXXFIXXLIEGGKSSGAPPPS
modifications: Aib2, αMeF(2F)6, 4Pal10, αMeL13, Orn16, Aib20, Orn21, D-Glu24, αMeY25; acylated K17, K31 (groups as in name); C-terminal amide
B2: Y-Aib-EGT-αMeF(2F)-TSD-Ac4c-SI-αMeL-LD-Orn-K((2-[2-(2-Amino-ethoxy)-ethoxy]-acetyl)2-(γ-Glu)-CO-(CH2)12-CO2H)AQ-Aib-EFI-(D-Glu)-αMeY-LIEGGK((2-[2-(2-Amino-ethox … (peptide)
peptide: B1 peptide with X21E
modifications: Aib2, αMeF(2F)6, Ac4c10, αMeL13, Orn16, Aib20, D-Glu24, αMeY25; acylated K17, K31 (groups as in name); C-terminal amide
B3: Y-Aib-EGT-αMeF(2F)-TSD-4Pal-SI-αMeL-LD-Orn-K((2-[2-(2-Amino-ethoxy)-ethoxy]-acetyl)2-(γ-Glu)-CO-(CH2)12-CO2H)AQ-Aib-GFI-(D-Glu)-αMeY-LIEGGK((2-[2-(2-Amino-ethox … (peptide)
peptide: B1 peptide with X21G
modifications: Aib2, αMeF(2F)6, 4Pal10, αMeL13, Orn16, Aib20, D-Glu24, αMeY25; acylated K17, K31 (groups as in name); C-terminal amide
B4: Y-Aib-EGT-αMeF(2F)-TSD-Ac5c-SI-αMeL-LD-Orn-K((2-[2-(2-Amino-ethoxy)-ethoxy]-acetyl)2-(γ-Glu)-CO-(CH2)12-CO2H)AQ-Aib-E-αMeF-I-(D-Glu)-αMeY-LIEGGK((2-[2-(2-Amino- … (peptide)
peptide: B1 peptide with X21E, F22X
modifications: Aib2, αMeF(2F)6, Ac5c10, αMeL13, Orn16, Aib20, αMeF22, D-Glu24, αMeY25; acylated K17, K31 (groups as in name); C-terminal amide
B5: Y-Aib-EGT-αMeF(2F)-TSD-4Pal-Ac5c-I-αMeL-LD-Orn-K((2-[2-(2-Amino-ethoxy)-ethoxy]-acetyl)2-(γ-Glu)-CO-(CH2)12-CO2H)AQ-Aib-EFI-(D-Glu)-αMeY-LIEGGK((2-[2-(2-Amino-e … (peptide)
peptide: B1 peptide with S11X, X21E
modifications: Aib2, αMeF(2F)6, 4Pal10, Ac5c11, αMeL13, Orn16, Aib20, D-Glu24, αMeY25; acylated K17, K31 (groups as in name); C-terminal amide
B6: Y-Aib-EGT-αMeF(2F)-TSDVSI-αMeL-LD-Orn-K((2-[2-(2-Amino-ethoxy)-ethoxy]-acetyl)2-(γ-Glu)-CO-(CH2)12-CO2H)AQ-Aib-E-αMeF-I-(D-Glu)-αMeY-LIEGGK((2-[2-(2-Amino-ethox … (peptide)
peptide: B1 peptide with X10V, X21E, F22X
modifications: Aib2, αMeF(2F)6, αMeL13, Orn16, Aib20, αMeF22, D-Glu24, αMeY25; acylated K17, K31 (groups as in name); C-terminal amide
B7: Y-Aib-EGT-αMeF(2F)-TSD-αMeF(2F)-SI-αMeL-LD-Orn-K((2-[2-(2-Amino-ethoxy)-ethoxy]-acetyl)2-(γ-Glu)-CO-(CH2)12-CO2H)AQ-Aib-EFI-(D-Glu)-αMeY-LIEGGK((2-[2-(2-Amino-e … (peptide)
peptide: B1 peptide with X21E
modifications: Aib2, αMeF(2F)6, αMeF(2F)10, αMeL13, Orn16, Aib20, D-Glu24, αMeY25; acylated K17, K31 (groups as in name); C-terminal amide
B8: Y-Aib-EGT-αMeF(2F)-TSD-4Pal-SI-αMeL-LD-Orn-K((2-[2-(2-Amino-ethoxy)-ethoxy]-acetyl)2-(γ-Glu)-CO-(CH2)12-CO2H)AQ-Aib-EFI-(D-Glu)-αMeY-LI-Orn-GGK((2-[2-(2-Amino-e … (peptide)
peptide: B1 peptide with X21E, E28X
modifications: Aib2, αMeF(2F)6, 4Pal10, αMeL13, Orn16, Aib20, D-Glu24, αMeY25, Orn28; acylated K17, K31 (groups as in name); C-terminal amide
B9: Y-Aib-EGT-αMeF(2F)-TSDY-Dap-I-αMeL-LD-Orn-K((2-[2-(2-Amino-ethoxy)-ethoxy]-acetyl)2-(γ-Glu)-CO-(CH2)12-CO2H)AQ-Aib-EFI-(D-Glu)-αMeY-LIEGGK((2-[2-(2-Amino-ethoxy … (peptide)
peptide: B1 peptide with X10Y, S11X, X21E
modifications: Aib2, αMeF(2F)6, Dap11, αMeL13, Orn16, Aib20, D-Glu24, αMeY25; acylated K17, K31 (groups as in name); C-terminal amide
B10: Y-Aib-EGT-αMeF(2F)-TSDVSI-αMeL-LD-Orn-K((2-[2-(2-Amino-ethoxy)-ethoxy]-acetyl)2-(γ-Glu)-CO-(CH2)12-CO2H)AQ-Aib-EFI-(D-Glu)-αMeY-LIEGGK((2-[2-(2-Amino-ethoxy)-et … (peptide)
peptide: B1 peptide with X10V, X21E
modifications: Aib2, αMeF(2F)6, αMeL13, Orn16, Aib20, D-Glu24, αMeY25; acylated K17, K31 (groups as in name); C-terminal amide
B11: Y-Aib-EGT-αMeF(2F)-TSD-4Pal-SI-αMeL-LD-Orn-K((2-[2-(2-Amino-ethoxy)-ethoxy]-acetyl)2-(γ-Glu)-CO-(CH2)12-CO2H)AQ-Aib-EFIG-αMeY-LIEGGK((2-[2-(2-Amino-ethoxy)-etho … (peptide)
peptide: B1 peptide with X21E, X24G
modifications: Aib2, αMeF(2F)6, 4Pal10, αMeL13, Orn16, Aib20, αMeY25; acylated K17, K31 (groups as in name); C-terminal amide
B12: Y-Aib-EGT-αMeF(2F)-TSD-4Pal-SI-αMeL-LD-Orn-K((2-[2-(2-Amino-ethoxy)-ethoxy]-acetyl)2-(γ-Glu)-CO-(CH2)12-CO2H)AQ-Aib-E-2Nal-I-(D-Glu)-αMeY-LIEGGK((2-[2-(2-Amino- … (peptide)
peptide: B1 peptide with X21E, F22X
modifications: Aib2, αMeF(2F)6, 4Pal10, αMeL13, Orn16, Aib20, 2Nal22, D-Glu24, αMeY25; acylated K17, K31 (groups as in name); C-terminal amide
B13: Y-Aib-EGT-αMeF(2F)-TSD-4Pal-Tle-I-αMeL-LD-Orn-K((2-[2-(2-Amino-ethoxy)-ethoxy]-acetyl)2-(γ-Glu)-CO-(CH2)12-CO2H)AQ-Aib-EFI-(D-Glu)-αMeY-LIEGGK((2-[2-(2-Amino-et … (peptide)
peptide: B1 peptide with S11X, X21E
modifications: Aib2, αMeF(2F)6, 4Pal10, Tle11, αMeL13, Orn16, Aib20, D-Glu24, αMeY25; acylated K17, K31 (groups as in name); C-terminal amide
B14: Y-Aib-EGT-αMeF(2F)-TSD-4Pal-SI-αMeL-LD-Orn-IAQ-Aib-EFIK((2-[2-(2-Amino-ethoxy)-ethoxy]-acetyl)2-CO-(CH2)12-CO2H)-αMeY-LIEGGPSSGAPPP … (peptide)
peptide: YXEGTXTSDXSIXLDXIAQXEFIKXLIEGGPSSGAPPPSK
modifications: Aib2, αMeF(2F)6, 4Pal10, αMeL13, Orn16, Aib20, αMeY25; acylated K24, K40 (groups as in name); C-terminal amide
B15: Y-Aib-EGT-αMeF(2F)-TSD-4Pal-SI-αMeL-LD-Orn-IAQ-Aib-EFI-(D-Glu)-αMeY-LIK((2-[2-(2-Amino-ethoxy)-ethoxy]-acetyl)2-(γ-Glu)-(4-(4-tert-butylphenyl)butanoyl))GGPSSGA … (peptide)
peptide: B14 peptide with K24X, E28K
modifications: Aib2, αMeF(2F)6, 4Pal10, αMeL13, Orn16, Aib20, D-Glu24, αMeY25; acylated K28, K40 (groups as in name); C-terminal amide

Legend:
Test in all cases: cell-based or functional assay
human GIP receptor = target: T1, human GIP receptor
human GLP-1 receptor = human GLP-1 receptor (human, UniProt P43220 24-463)
human glucagon receptor = human glucagon receptor (human, UniProt P47871 26-477)

Binder	cAMP EC50 (1.0% HSA) (human GIP receptor) [nM]	cAMP Emax (1.0% HSA) (human GIP receptor) [%]	cAMP EC50 (1.0% HSA) (human GLP-1 receptor) [nM]	cAMP EC50 (1.0% HSA) (human glucagon receptor) [nM]	cAMP Emax (1.0% HSA) (human GLP-1 receptor) [%]
B1	0.35	81.3	11	> 9950	–
B2	4.68	–	8.84	> 9950	84
B3	0.515	94.2	35.5	> 9950	–
B4	2.81	–	145	> 9950	113
B5	2.16	64.5	94.2	> 9950	99
B6	2.64	102	76.8	> 9950	108
B7	4.84	–	80	> 9950	–
B8	0.306	87.5	17.3	> 9950	112
B9	2.7	83.7	26.6	> 9950	–
B10	3.81	104	23.4	> 9950	96.6
B11	0.52	95.9	12.3	> 9950	95.8
B12	2.49	–	20	> 9950	81.1
B13	6.09	75.3	62.2	> 9950	109
B14	1.24	80.7	21.2	> 9950	109
B15	0.242	77.6	3.03	> 9950	98.1
